Experimental data as given in patent US20090233266A1.

Target: C-terminal domain of the NS2 protein of hepatitis C virus, amino acids 94 to 217 of NS2 from HCV genotype 1a strain H77 (residues 903 to 1026 of the HCV polyprotein) (hepatitis C virus genotype 1a strain H77) (UniProt P27958)
Assay: X-ray crystal structure

Substance: C-terminal domain of the NS2 protein of hepatitis C virus, amino acids 94 to 217 of NS2 from HCV genotype 1a strain H77 (residues 903 to 1026 of the HCV polyprotein) (from UniProt P27958) (enzyme)
- total buried surface area: 1100 Å^2
